Assay results: the supplement of paper PMC9112550, “Optimization of the antimicrobial peptide Bac7 by deep mutational scanning” (BMC Biology, 2022)

test system: Escherichia coli TOP10; assay: shrunken log2 fold change of peptide-encoding DNA abundance (4.5 h post-induction vs induction); higher = less antimicrobial activity (less host growth inhibition); conditions: time post-induction: 4.5 h; library: site-saturation at positions 5, 18, 19, 20
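Note: peptides expressed intracellularly from a pBAD plasmid library in pooled LB shake-flask culture, induced with 0.3% L-arabinose, DNA abundance read by NGS, three biological replicates, DESeq2 with apeglm shrinkage.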

Row | Sequence | shrunken log2 fold change
1 | RRIRGRPPRLPRPRPRPFVEPRP | 0.236
2 | RRIRGRPPRLPRPRPRPFVRPRP | 0.0432
3 | RRIRGRPPRLPRPRPRPFWAPRP | 0.325
4 | RRIRGRPPRLPRPRPRPFWRPRP | 0.297
5 | RRIRGRPPRLPRPRPRPFWSPRP | 0.679
6 | RRIRGRPPRLPRPRPRPGACPRP | 0.911
7 | RRIRGRPPRLPRPRPRPGATPRP | 1.39
8 | RRIRGRPPRLPRPRPRPGCKPRP | 0.441
9 | RRIRGRPPRLPRPRPRPGESPRP | 0.584
10 | RRIRGRPPRLPRPRPRPGFPPRP | 0.691
11 | RRIRGRPPRLPRPRPRPGFSPRP | 0.644
12 | RRIRGRPPRLPRPRPRPGFVPRP | 0.768
13 | RRIRGRPPRLPRPRPRPGGCPRP | 1.19
14 | RRIRGRPPRLPRPRPRPGGMPRP | 0.662
15 | RRIRGRPPRLPRPRPRPGHDPRP | 0.0495
16 | RRIRGRPPRLPRPRPRPGKIPRP | 1.93
17 | RRIRGRPPRLPRPRPRPGKMPRP | 0.224
18 | RRIRGRPPRLPRPRPRPGMCPRP | 0.489
19 | RRIRGRPPRLPRPRPRPGMNPRP | 0.105
20 | RRIRGRPPRLPRPRPRPGNCPRP | 0.131
21 | RRIRGRPPRLPRPRPRPGNDPRP | 0.381
22 | RRIRGRPPRLPRPRPRPGPTPRP | 1.51
23 | RRIRGRPPRLPRPRPRPGRIPRP | 0.153
24 | RRIRGRPPRLPRPRPRPGRPPRP | 0.737
25 | RRIRGRPPRLPRPRPRPGVAPRP | 1.53

Row | Sequence | shrunken log2 fold change
26 | RRIRGRPPRLPRPRPRPGVEPRP | 1.46
27 | RRIRGRPPRLPRPRPRPGWMPRP | 0.315
28 | RRIRGRPPRLPRPRPRPGWNPRP | 0.486
29 | RRIRGRPPRLPRPRPRPGYQPRP | -0.0619
30 | RRIRGRPPRLPRPRPRPHAFPRP | 0.372
31 | RRIRGRPPRLPRPRPRPHCSPRP | 0.144
32 | RRIRGRPPRLPRPRPRPHDCPRP | 0.0253
33 | RRIRGRPPRLPRPRPRPHDVPRP | 0.118
34 | RRIRGRPPRLPRPRPRPHEFPRP | 0.144
35 | RRIRGRPPRLPRPRPRPHEGPRP | 0.403
36 | RRIRGRPPRLPRPRPRPHEKPRP | 0.0144
37 | RRIRGRPPRLPRPRPRPHETPRP | -0.022
38 | RRIRGRPPRLPRPRPRPHFQPRP | -0.099
39 | RRIRGRPPRLPRPRPRPHGHPRP | 0.382
40 | RRIRGRPPRLPRPRPRPHGNPRP | 0.365
41 | RRIRGRPPRLPRPRPRPHINPRP | 0.214
42 | RRIRGRPPRLPRPRPRPHITPRP | -0.0465
43 | RRIRGRPPRLPRPRPRPHLFPRP | 0.0842
44 | RRIRGRPPRLPRPRPRPHLNPRP | 0.0325
45 | RRIRGRPPRLPRPRPRPHMWPRP | -0.0527
46 | RRIRGRPPRLPRPRPRPHNMPRP | -0.285
47 | RRIRGRPPRLPRPRPRPHRFPRP | 0.101
48 | RRIRGRPPRLPRPRPRPHRIPRP | 0.00463
49 | RRIRGRPPRLPRPRPRPHRKPRP | 0.101
50 | RRIRGRPPRLPRPRPRPHRPPRP | -0.00248

Row | Sequence | shrunken log2 fold change
51 | RRIRGRPPRLPRPRPRPHRRPRP | 0.205
52 | RRIRGRPPRLPRPRPRPHSCPRP | 0.153
53 | RRIRGRPPRLPRPRPRPHSLPRP | -0.0762
54 | RRIRGRPPRLPRPRPRPHSRPRP | 0.26
55 | RRIRGRPPRLPRPRPRPHTEPRP | -0.0408
56 | RRIRGRPPRLPRPRPRPHTFPRP | -0.0226
57 | RRIRGRPPRLPRPRPRPHTYPRP | -0.0875
58 | RRIRGRPPRLPRPRPRPHYTPRP | -0.379
59 | RRIRGRPPRLPRPRPRPIAMPRP | 0.401
60 | RRIRGRPPRLPRPRPRPIAYPRP | 0.117
61 | RRIRGRPPRLPRPRPRPICDPRP | 0.717
62 | RRIRGRPPRLPRPRPRPICQPRP | 0.655
63 | RRIRGRPPRLPRPRPRPICSPRP | 0.122
64 | RRIRGRPPRLPRPRPRPIDMPRP | -0.0207
65 | RRIRGRPPRLPRPRPRPIDSPRP | 0.00395
66 | RRIRGRPPRLPRPRPRPIELPRP | -0.0084
67 | RRIRGRPPRLPRPRPRPIEMPRP | 0.0736
68 | RRIRGRPPRLPRPRPRPIENPRP | 0.745
69 | RRIRGRPPRLPRPRPRPIERPRP | -0.00587
70 | RRIRGRPPRLPRPRPRPIFMPRP | 0.283
71 | RRIRGRPPRLPRPRPRPIFTPRP | 0.284
72 | RRIRGRPPRLPRPRPRPIHQPRP | -0.0704
73 | RRIRGRPPRLPRPRPRPIIIPRP | -0.167
74 | RRIRGRPPRLPRPRPRPIIQPRP | 0.203
75 | RRIRGRPPRLPRPRPRPIIVPRP | -0.043

Row | Sequence | shrunken log2 fold change
76 | RRIRGRPPRLPRPRPRPIKAPRP | 0.024
77 | RRIRGRPPRLPRPRPRPIKQPRP | -0.0183
78 | RRIRGRPPRLPRPRPRPILKPRP | 0.316
79 | RRIRGRPPRLPRPRPRPINRPRP | -0.231
80 | RRIRGRPPRLPRPRPRPIPGPRP | 0.107
81 | RRIRGRPPRLPRPRPRPIPHPRP | 0.196
82 | RRIRGRPPRLPRPRPRPIQMPRP | -0.027
83 | RRIRGRPPRLPRPRPRPIQPPRP | 0.46
84 | RRIRGRPPRLPRPRPRPIQVPRP | 0.118
85 | RRIRGRPPRLPRPRPRPIRIPRP | 0.217
86 | RRIRGRPPRLPRPRPRPISPPRP | -0.0176
87 | RRIRGRPPRLPRPRPRPITTPRP | 0.407
88 | RRIRGRPPRLPRPRPRPKCIPRP | 0.0819
89 | RRIRGRPPRLPRPRPRPKCQPRP | 0.581
90 | RRIRGRPPRLPRPRPRPKFTPRP | 0.12
91 | RRIRGRPPRLPRPRPRPKGPPRP | 0.331
92 | RRIRGRPPRLPRPRPRPKGVPRP | 0.123
93 | RRIRGRPPRLPRPRPRPKHMPRP | 0.0797
94 | RRIRGRPPRLPRPRPRPKIAPRP | 0.386
95 | RRIRGRPPRLPRPRPRPKKKPRP | 0.354
96 | RRIRGRPPRLPRPRPRPKLVPRP | 0.326
97 | RRIRGRPPRLPRPRPRPKMNPRP | 0.407
98 | RRIRGRPPRLPRPRPRPKMVPRP | 0.79
99 | RRIRGRPPRLPRPRPRPKNAPRP | 1.91
100 | RRIRGRPPRLPRPRPRPKPTPRP | 0.527

Row | Sequence | shrunken log2 fold change
101 | RRIRGRPPRLPRPRPRPKPVPRP | 0.985
102 | RRIRGRPPRLPRPRPRPKSLPRP | 0.413
103 | RRIRGRPPRLPRPRPRPKTCPRP | 0.206
104 | RRIRGRPPRLPRPRPRPKTHPRP | 0.947
105 | RRIRGRPPRLPRPRPRPKYEPRP | 0.56
106 | RRIRGRPPRLPRPRPRPLAKPRP | 1.29
107 | RRIRGRPPRLPRPRPRPLDEPRP | 1.24
108 | RRIRGRPPRLPRPRPRPLDLPRP | 0.717
109 | RRIRGRPPRLPRPRPRPLDRPRP | 0.732
110 | RRIRGRPPRLPRPRPRPLFTPRP | 0.572
111 | RRIRGRPPRLPRPRPRPLHLPRP | 0.0533
112 | RRIRGRPPRLPRPRPRPLHSPRP | 0.529
113 | RRIRGRPPRLPRPRPRPLIKPRP | 0.469
114 | RRIRGRPPRLPRPRPRPLILPRP | 0.203
115 | RRIRGRPPRLPRPRPRPLLHPRP | 0.762
116 | RRIRGRPPRLPRPRPRPLLIPRP | 0.61
117 | RRIRGRPPRLPRPRPRPLLQPRP | 0.486
118 | RRIRGRPPRLPRPRPRPLMQPRP | 0.605
119 | RRIRGRPPRLPRPRPRPLREPRP | 1.85
120 | RRIRGRPPRLPRPRPRPLRPPRP | 1.47
121 | RRIRGRPPRLPRPRPRPLSAPRP | 0.507
122 | RRIRGRPPRLPRPRPRPLSRPRP | 1.17
123 | RRIRGRPPRLPRPRPRPLVKPRP | 0.546
124 | RRIRGRPPRLPRPRPRPLVWPRP | 0.952
125 | RRIRGRPPRLPRPRPRPLWAPRP | 0.681

Row | Sequence | shrunken log2 fold change
126 | RRIRGRPPRLPRPRPRPMAHPRP | 0.63
127 | RRIRGRPPRLPRPRPRPMAYPRP | 0.0863
128 | RRIRGRPPRLPRPRPRPMDRPRP | 0.156
129 | RRIRGRPPRLPRPRPRPMDWPRP | 0.929
130 | RRIRGRPPRLPRPRPRPMGFPRP | 0.315
131 | RRIRGRPPRLPRPRPRPMGKPRP | 0.375
132 | RRIRGRPPRLPRPRPRPMGQPRP | 0.651
133 | RRIRGRPPRLPRPRPRPMHAPRP | 1.66
134 | RRIRGRPPRLPRPRPRPMHGPRP | 0.36
135 | RRIRGRPPRLPRPRPRPMHKPRP | 0.866
136 | RRIRGRPPRLPRPRPRPMICPRP | 0.166
137 | RRIRGRPPRLPRPRPRPMIFPRP | 0.283
138 | RRIRGRPPRLPRPRPRPMIHPRP | -0.0642
139 | RRIRGRPPRLPRPRPRPMIQPRP | 0.522
140 | RRIRGRPPRLPRPRPRPMIRPRP | 0.147
141 | RRIRGRPPRLPRPRPRPMKIPRP | 0.533
142 | RRIRGRPPRLPRPRPRPMLEPRP | 0.778
143 | RRIRGRPPRLPRPRPRPMLHPRP | 0.526
144 | RRIRGRPPRLPRPRPRPMNTPRP | 0.632
145 | RRIRGRPPRLPRPRPRPMNWPRP | 0.179
146 | RRIRGRPPRLPRPRPRPMREPRP | -0.00527
147 | RRIRGRPPRLPRPRPRPMSIPRP | 0.0628
148 | RRIRGRPPRLPRPRPRPMSWPRP | 0.252
149 | RRIRGRPPRLPRPRPRPMTTPRP | 1.16
150 | RRIRGRPPRLPRPRPRPMWAPRP | 0.925
